Test results published in publication PMC8607881 (Nature, 2021).

B1: C-terminally truncated bovine GRK1 (residues 1-535) with C-terminal His6 (enzyme, UniProt P28327 1-535, looked up)
chain: MDFGSLETVVANSAFIAARGSFDASSGPASRDRKYLARLKLPPLSKCEALRESLDLGFEGMCLEQPIGKRLFQQFLRTHEQHGPALQLWKDIEDYDTADDALRPQKAQALRAAYLEPQAQLFCSFLDAETVARARAGAGDGLFQPLLRAVLAHLGQAPFQEFLDSLYFLRFLQWKWLEAQPMGEDWFLDFRVLGRGGFGEVFACQMKATGKLYACKKLNKKRLKKRKGYQGAMVEKKILAKVHSRFIVSLAYAFETKTDLCLVMTIMNGGDIRYHIYNVDEDNPGFQEPRAIFYTAQIVSGLEHLHQRNIIYRDLKPENVLLDDDGNVRISDLGLAVELKAGQTKTKGYAGTPGFMAPELLLGEEYDFSVDYFALGVTLYEMIAARGPFRARGEKVENKELKQRVLEQAVTYPDKFSPASKDFCEALLQKDPEKRLGFRDGSCDGLRTHPLFRDISWRQLEAGMLTPPFVPDSRTVYAKNIQDVGAFSTVKGVAFEKADTEFFQEFASGTCPIPWQEEMIETGVFGDLNVWRPDG
B2: light activated rhodopsin (Rho*) (receptor, bovine, UniProt P02699 1-348, looked up)
chain: MNGTEGPNFYVPFSNKTGVVRSPFEAPQYYLAEPWQFSMLAAYMFLLIMLGFPINFLTLYVTVQHKKLRTPLNYILLNLAVADLFMVFGGFTTTLYTSLHGYFVFGPTGCNLEGFFATLGGEIALWSLVVLAIERYVVVCKPMSNFRFGENHAIMGVAFTWVMALACAAPPLVGWSRYIPEGMQCSCGIDYYTPHEETNNESFVIYMFVVHFIIPLIVIFFCYGQLVFTVKEAAAQQQESATTQKAEKEVTRMVIIMVIAFLICWLPYAGVAFYIFTHQGSDFGPIFMTIPAFFAKTSAVYNPVIYIMMNKQFRNCMVTTLCCGKNPLGDDEASTTVSKTETSQVAPA
modifications: all-trans retinal (Meta II state)

How the values were obtained:
[1] = target: B2; assay: cross-linking
[2] = target: B1; assay: cross-linking
[3] = target: biotinylated Avi-tagged GRK1 (residues 1-535, His6-Avi), Sgv-bound (Bos taurus (Bovine)., UniProt P28327, biotin on the Avi-tag); assay: ELISA

| binding result [2] | Kd [3] [nM] | further results | Binder |
| --- | --- | --- | --- |
| – | – | stoichiometry N [1]: 1 | B1 |
| binds | – | – | hyper-phosphorylated rhodopsin (light activated) (receptor, bovine, UniProt P02699 1-348, looked up, 6–8 phosphates incorporated per rhodopsin (7 possible sites in the cytoplasmic tail)) MNGTEGPNFYVPFSNKTGVVRSPFEAPQYYLAEPWQFSMLAAYMFLLIMLGFPINFLTLYVTVQHKKLRTPLNYILLNLAVADLFMVFGGFTTTLYTSLHGYFVFGPTGCNLEGFFATLGGEIALWSLVVLAIERYVVVCKPMSNFRFGENHAIMGVAFTWVMALACAAPPLVGWSRYIPEGMQCSCGIDYYTPHEETNNESFVIYMFVVHFIIPLIVIFFCYGQLVFTVKEAAAQQQESATTQKAEKEVTRMVIIMVIAFLICWLPYAGVAFYIFTHQGSDFGPIFMTIPAFFAKTSAVYNPVIYIMMNKQFRNCMVTTLCCGKNPLGDDEASTTVSKTETSQVAPA |
| binds | – | – | B2 |
| – | ~2.5 | – | Fab1 (Fab, V domains shown) VH: EVQLVESGGGLVQPGGSLRLSCAASGFNLYSSSIHWVRQAPGKGLEWVASIYSYYGSTSYADSVKGRFTISADTSKNTAYLQMNSLRAEDTAVYYCARYEGWWWANTYALDYWGQGTLVTVSS VL: DIQMTQSPSSLSASVGDRVTITCRASQSVSSAVAWYQQKPGKAPKLLIYSASSLYSGVPSRFSGSRSGTDFTLTISSLQPEDFATYYCQQYYEWLSLFTFGQGTKVEIK |
| – | ~2.5 | – | Fab6 (Fab, V domains shown) VH: EVQLVESGGGLVQPGGSLRLSCAASGFNFSSYSIHWVRQAPGKGLEWVAYISSYYGSTYYADSVKGRFTISADTSKNTAYLQMNSLRAEDTAVYYCARHEYGWWNDRWGLDYWGQGTLVTVSS VL: DIQMTQSPSSLSASVGDRVTITCRASQSVSSAVAWYQQKPGKAPKLLIYSASSLYSGVPSRFSGSRSGTDFTLTISSLQPEDFATYYCQQSSWYGPFTFGQGTKVEIK |
